# In US20050074863A1, “T-cell epitodes in carboxypeptidase g2” (priority 2001, published 2005):
# B1: carboxypeptidase G2 (protein, UniProt P06621 23-415, looked up)
# Carboxypeptidase G2: ALAQKRDNVLFQAATDEQPAVIKTLEKLVNIETGTGDAEGIAAAGNFLEAELKNLGFTVTRSKSAGLVVGDNIVGKIKGRGGKNLLLMSHMDTVYLKGILAKAPFRVEGDKAYGPGIADDKGGNAVILHTLKLLKEYGVRDYGTITVLFNTDEEKGSFGSRDLIQEEAKLADYVLSFEPTSAGDEKLSLGTSGIAYVQVNITGKASHAGAAPELGVNALVEASDLVLRTMNIDDKAKNLRFNWTIAKAGNVSNIIPASATLNADVRYARNEDFDAAMKTLEERAQQKKLPEADVKVIVTRGRPAFNAGEGGKKLVDKAVAYYKEAGGTLGVEERTGGGTDAAYAALSGKPVIESLGLPGFGYHSDKAEYVDISAIPRRLYMAARLIMDLGAGK
# modifications: 6xHis tag
# notes: bacterial enzyme from Pseudomonas sp. strain RS-16, 390 residues, recombinant 6xHis tagged; positive control protein
# Test system: human T-cells
# Assay: Human PBMC in vitro proliferation assay with wild-type or modified CPG2 protein
# Type: cell-based
# Description: A modified protein was prepared according to the method of examples 3-5. The modified protein contained multiple substitutions from the wild-type sequence. Positive control protein was wild-type CPG2.
# For T cell proliferation assays 4×10^6 PBMC (per well) from healthy donors were incubated with unmodified and modified […] in 2 ml bulk cultures (in 24 well plates). Each donor culture was treated with modified and unmodified CPG2 at 5 and 50 μg/ml. In addition an untreated control bulk culture was maintained enabling stimulation indexes to be determined. At days 5, 6, 7 and 8 cells for each bulk culture were gently agitated and 50 μl samples removed in triplicate for determination of the proliferation index. The 50 μl sample aliquots were each transferred to 3 wells of a U-bottom 96 well plate. Fresh AIM V media (130 μl) was added to each of the 96 wells. Cells were pulsed (for 18-21 hours) with 1 μCi [^3H]Thymidine per well diluted in a total volume of 20 ul AIM V media. The total volume for each culture was 200 μl. CPM values were collected using a beta-plate reader and the stimulation index for each time point determined as per Example 2.
# The SI was plotted for each time point and treatment.
molecule,measurement,setting,value
B1,proliferative response (stimulation index) to whole protein,"responsive donors #1 and #16, 5 and 50 μg/ml, days 5-8, 3H-thymidine",significant proliferative response
same,time of peak proliferative response,"responsive donors, 5 and 50 μg/ml",7 days
